Common to all, as to conditions: protein: recombinant; tags: His6-MBP removed by TEV; label: 32P or 6-FAM for cleavage; tCo (position not in material) for unwinding; guide RNA (S25+S26 joined) / target strand / non-target strand; DNA duplex blunt
In data set [1] the target is T1, SpCas9 (Streptococcus pyogenes, UniProt Q99ZW2 1-1368). As to the kind of experiment: stopped-flow and cleavage kinetics, global fit; Kd,net including R-loop formation; bracketed value, footnote 3 not in material, may be fixed or from earlier work; Reaction buffer, salt, pH and temperature not in the material; Mg2+ added to start cleavage, omitted for pre-equilibration.

Data set [2] deals with T1, SpCas9. As to the kind of experiment: stopped-flow and cleavage kinetics, global fit; 1/K1, initial binding step; bracketed value, footnote 3 not in material, may be fixed or from earlier work; Reaction buffer, salt, pH and temperature not in the material; Mg2+ added to start cleavage, omitted for pre-equilibration.
The target in data set [3] is T1, SpCas9. As to the kind of experiment: stopped-flow and cleavage kinetics, global fit; 1/K1, initial binding step; Reaction buffer, salt, pH and temperature not in the material; Mg2+ added to start cleavage, omitted for pre-equilibration.
Data set [4] deals with T1, SpCas9. As to the kind of experiment: stopped-flow and cleavage kinetics, global fit; Kd,net including R-loop formation; Reaction buffer, salt, pH and temperature not in the material; Mg2+ added to start cleavage, omitted for pre-equilibration.

This is an account of results in article PMC7367838, “Engineered CRISPR/Cas9 enzymes improve discrimination by slowing DNA cleavage to allow release of off-target DNA”.

T1 sequence (Q99ZW2 whole entry): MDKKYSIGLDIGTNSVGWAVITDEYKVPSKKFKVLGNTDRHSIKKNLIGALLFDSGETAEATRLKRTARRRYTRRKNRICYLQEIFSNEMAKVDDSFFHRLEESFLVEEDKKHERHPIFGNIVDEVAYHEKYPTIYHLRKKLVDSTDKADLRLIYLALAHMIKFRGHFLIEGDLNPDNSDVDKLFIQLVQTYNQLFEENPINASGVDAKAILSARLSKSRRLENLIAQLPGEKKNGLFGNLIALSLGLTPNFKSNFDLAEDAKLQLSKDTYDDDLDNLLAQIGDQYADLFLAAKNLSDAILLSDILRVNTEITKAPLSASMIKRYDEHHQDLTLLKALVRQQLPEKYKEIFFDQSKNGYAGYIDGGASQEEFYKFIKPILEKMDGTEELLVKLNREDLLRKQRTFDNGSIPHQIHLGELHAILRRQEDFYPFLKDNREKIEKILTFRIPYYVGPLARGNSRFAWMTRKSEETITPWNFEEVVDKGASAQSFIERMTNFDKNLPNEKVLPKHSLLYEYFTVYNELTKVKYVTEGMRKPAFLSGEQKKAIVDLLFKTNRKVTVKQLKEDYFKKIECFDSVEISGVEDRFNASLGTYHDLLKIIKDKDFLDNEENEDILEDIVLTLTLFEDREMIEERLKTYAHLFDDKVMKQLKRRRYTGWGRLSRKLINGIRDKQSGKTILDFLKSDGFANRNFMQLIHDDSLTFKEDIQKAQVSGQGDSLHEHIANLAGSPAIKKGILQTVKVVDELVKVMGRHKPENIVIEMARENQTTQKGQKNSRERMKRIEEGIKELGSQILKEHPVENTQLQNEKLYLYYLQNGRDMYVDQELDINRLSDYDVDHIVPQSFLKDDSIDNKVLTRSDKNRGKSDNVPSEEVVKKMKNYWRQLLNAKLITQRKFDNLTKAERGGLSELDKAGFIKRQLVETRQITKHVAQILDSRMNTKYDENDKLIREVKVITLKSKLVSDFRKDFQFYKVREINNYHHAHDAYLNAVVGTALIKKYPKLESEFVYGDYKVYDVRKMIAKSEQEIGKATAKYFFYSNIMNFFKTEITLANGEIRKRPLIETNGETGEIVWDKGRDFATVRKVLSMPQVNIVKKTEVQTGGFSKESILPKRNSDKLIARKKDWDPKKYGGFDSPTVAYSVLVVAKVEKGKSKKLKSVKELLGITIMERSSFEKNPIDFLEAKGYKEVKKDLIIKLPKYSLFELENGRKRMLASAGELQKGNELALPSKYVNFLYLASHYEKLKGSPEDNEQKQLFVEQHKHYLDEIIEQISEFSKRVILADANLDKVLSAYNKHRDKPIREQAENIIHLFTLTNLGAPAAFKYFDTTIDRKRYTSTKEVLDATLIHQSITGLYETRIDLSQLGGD

B1: sgRNA + on-target 55-bp DNA (mixed)
RNA: GACGCAUAAAGAUGAGACGCGUUUUAGAGCUAUGCUGUUUUGGAAACAAAACAGCAUAGCAAGUUAAAAUAAGGCUAGUCCGUUAUCAACUUGAAAAAGUGGCACCGAGUCGGUGCUUUUUUUGGAUC
DNA 1: AGCTGACGTTTGTACTCCAGCGTCTCATCTTTATGCGTCAGCAGAGATTTCTGCT
DNA 2: AGCAGAAATCTCTGCTGACGCATAAAGATGAGACGCTGGAGTACAAACGTCAGCT
As for B1, the results for the Kd with SpCas9 [1] and with SpCas9 [2] were 1 nM and 3 nM, respectively.

B2: sgRNA + off-target 55-bp DNA (3-bp PAM-distal mismatch) (mixed)
RNA: GACGCAUAAAGAUGAGACGCGUUUUAGAGCUAUGCUGUUUUGGAAACAAAACAGCAUAGCAAGUUAAAAUAAGGCUAGUCCGUUAUCAACUUGAAAAAGUGGCACCGAGUCGGUGCUUUUUUUGGAUC
DNA 1: AGCTGACGTTTGTACTCCAGCGTCTCATCTTTATGCCAGAGCAGAGATTTCTGCT
DNA 2: AGCAGAAATCTCTGCTCTGGCATAAAGATGAGACGCTGGAGTACAAACGTCAGCT
With B2, the Kd (usually the constant that tells how readily two partners part at equilibrium) in the data set with SpCas9 [3] was determined as 24 nM; with SpCas9 [4] it was 8.1 nM.
